Assay [1] concerns the target T1, recombinant human γD-crystallin (human), P07320.
T1 chain: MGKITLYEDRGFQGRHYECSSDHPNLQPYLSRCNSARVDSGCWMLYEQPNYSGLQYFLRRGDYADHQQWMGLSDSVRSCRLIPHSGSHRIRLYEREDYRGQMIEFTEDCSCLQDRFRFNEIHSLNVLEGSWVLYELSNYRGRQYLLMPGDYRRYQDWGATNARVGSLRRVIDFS
Briefly: reducing SDS-PAGE; 1 mg/ml HGDC in 5 mM sodium phosphate pH 7.0, UV-C irradiated (254 nm, 1,850 μW/cm^2) for 10-60 min; 15% gel, sample buffer with β-mercaptoethanol; band intensities by Image-J. The settings on record: remark: other sources report otherwise.

The target of assay [2] is T1, recombinant human γD-crystallin …. Kind of assay: non-reducing SDS-PAGE; 1 mg/ml HGDC in 5 mM sodium phosphate pH 7.0, UV-C irradiated (254 nm, 1,850 μW/cm^2) for 10-60 min; 15% gel, sample buffer without β-mercaptoethanol; band intensities by Image-J. As to conditions: remark: other sources report otherwise.

B1: recombinant human γD-crystallin, P07320 1-174 (natural protein)
chain: T1 chain
Turning to B1, in assay [1], the HGDC polymerization (%) with β-ME, 10 min UV-C came to 6.66%; the HGDC polymerization (%) with β-ME, 20 min UV-C was determined as 15%; the HGDC polymerization (%) with β-ME, 30 min UV-C is 25.4%; the HGDC polymerization (%) with β-ME, 40 min UV-C worked out at 29.8%. Further, in assay [1], the HGDC polymerization (%) with β-ME, 50 min UV-C amounted to 30.1% and the HGDC polymerization (%) with β-ME, 60 min UV-C stood at 31.5%. In addition, in assay [2], the HGDC polymerization (%) without β-ME, 10 min UV-C was found to be 7.31%; the HGDC polymerization (%) without β-ME, 20 min UV-C turned out to be 17.6%; the HGDC polymerization (%) without β-ME, 30 min UV-C was 30.6%; the HGDC polymerization (%) without β-ME, 40 min UV-C was 42%. In assay [2], the HGDC polymerization (%) without β-ME, 50 min UV-C came out at 51.3% and the HGDC polymerization (%) without β-ME, 60 min UV-C worked out at 53.6%.

The record behind these values is PMC3008712.
